These are literature values, as cited in publication PMC3264399.

What is called Kd is the concentration at which binding is half-saturated.

Data set [1] addresses ephrin-B2 (Homo sapiens) (UniProt P52799).
The target in data set [2] is ephrin-B3 (Homo sapiens) (UniProt Q15768).
Data set [3] concerns the target CD46 (Homo sapiens) (UniProt P15529).

Chain of NiV-G (Q9IH62 whole entry): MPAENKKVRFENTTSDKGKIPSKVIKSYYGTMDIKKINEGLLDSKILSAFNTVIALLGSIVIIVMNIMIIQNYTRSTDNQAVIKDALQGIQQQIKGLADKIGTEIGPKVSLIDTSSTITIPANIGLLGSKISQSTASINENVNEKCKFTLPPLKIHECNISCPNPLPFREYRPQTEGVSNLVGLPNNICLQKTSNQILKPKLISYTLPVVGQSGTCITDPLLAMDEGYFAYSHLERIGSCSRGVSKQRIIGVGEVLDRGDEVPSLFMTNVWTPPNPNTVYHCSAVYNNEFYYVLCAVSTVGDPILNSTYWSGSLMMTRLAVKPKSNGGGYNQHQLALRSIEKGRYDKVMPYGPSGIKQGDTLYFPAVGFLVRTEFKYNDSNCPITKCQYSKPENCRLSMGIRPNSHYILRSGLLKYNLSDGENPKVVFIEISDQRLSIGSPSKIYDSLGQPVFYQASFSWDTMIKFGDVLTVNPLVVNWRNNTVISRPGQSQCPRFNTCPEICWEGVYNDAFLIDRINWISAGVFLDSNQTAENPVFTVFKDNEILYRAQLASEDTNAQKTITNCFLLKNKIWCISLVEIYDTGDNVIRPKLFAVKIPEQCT
Chain of CD46 (Homo sapiens) (P15529 35-392): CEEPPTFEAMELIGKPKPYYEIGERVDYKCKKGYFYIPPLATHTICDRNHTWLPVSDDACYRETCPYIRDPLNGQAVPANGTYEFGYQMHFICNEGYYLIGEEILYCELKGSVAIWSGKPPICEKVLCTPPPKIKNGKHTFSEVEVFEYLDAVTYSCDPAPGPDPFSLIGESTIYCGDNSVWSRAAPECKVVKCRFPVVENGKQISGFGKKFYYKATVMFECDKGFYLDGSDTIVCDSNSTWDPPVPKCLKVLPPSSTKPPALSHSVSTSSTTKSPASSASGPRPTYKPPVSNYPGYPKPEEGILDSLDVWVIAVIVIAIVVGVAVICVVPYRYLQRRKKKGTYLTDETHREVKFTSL
Chain of ephrin-B2 (Homo sapiens) (P52799 28-333): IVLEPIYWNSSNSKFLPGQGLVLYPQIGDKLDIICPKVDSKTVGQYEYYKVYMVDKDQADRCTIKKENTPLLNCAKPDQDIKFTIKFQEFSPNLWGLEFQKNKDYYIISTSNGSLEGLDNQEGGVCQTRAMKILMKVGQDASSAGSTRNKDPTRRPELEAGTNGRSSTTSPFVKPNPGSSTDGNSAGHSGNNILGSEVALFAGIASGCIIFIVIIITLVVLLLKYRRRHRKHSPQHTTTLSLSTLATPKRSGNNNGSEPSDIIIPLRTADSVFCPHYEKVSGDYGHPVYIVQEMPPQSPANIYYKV
Chain of ephrin-B3 (Homo sapiens) (Q15768 28-340): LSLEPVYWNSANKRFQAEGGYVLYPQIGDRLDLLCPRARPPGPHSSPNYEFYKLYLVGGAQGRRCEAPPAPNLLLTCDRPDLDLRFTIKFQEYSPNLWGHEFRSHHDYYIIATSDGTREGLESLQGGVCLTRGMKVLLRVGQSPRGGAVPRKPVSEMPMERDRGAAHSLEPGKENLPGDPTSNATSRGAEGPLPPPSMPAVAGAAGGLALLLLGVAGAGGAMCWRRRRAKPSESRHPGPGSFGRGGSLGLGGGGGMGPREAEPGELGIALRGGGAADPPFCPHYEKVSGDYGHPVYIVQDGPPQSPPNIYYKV
Chain of MeV-H (P08362 157-607): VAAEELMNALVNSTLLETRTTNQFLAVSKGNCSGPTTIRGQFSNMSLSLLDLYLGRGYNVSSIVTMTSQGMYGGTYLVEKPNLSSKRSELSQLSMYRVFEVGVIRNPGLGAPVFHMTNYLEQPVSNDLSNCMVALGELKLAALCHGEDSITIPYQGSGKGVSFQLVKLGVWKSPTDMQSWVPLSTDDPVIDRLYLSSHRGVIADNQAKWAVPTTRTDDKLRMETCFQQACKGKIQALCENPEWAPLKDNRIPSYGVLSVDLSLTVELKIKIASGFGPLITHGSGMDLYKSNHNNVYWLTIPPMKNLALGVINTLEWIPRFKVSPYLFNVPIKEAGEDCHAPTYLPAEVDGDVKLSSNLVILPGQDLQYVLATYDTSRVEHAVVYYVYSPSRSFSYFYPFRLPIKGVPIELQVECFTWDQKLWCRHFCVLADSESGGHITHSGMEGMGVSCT

Consider NiV-G (from UniProt Q9IH62), for which the Kd in data set [1] is 0.06 nM; in data set [2] it was 0.58 nM. MeV-H (from UniProt P08362): the Kd in data set [3] is 2200 nM.
